Assay results: US20190218553, “VON WILLEBRAND FACTOR (VWF)-TARGETING AGENTS AND METHODS OF USING THE SAME” (DUKE UNIVERSITY, published 2019)

Legend:
[1] = biological target: T1, von Willebrand factor (VWF) (Homo sapiens, UniProt P04275 P04275:764-2813); assay: filter; Bmax 63%; 2 mM CaCl2, 37 C; details: tags: factor VIII free, Haematologic Technologies Inc; label: 5'-32P
Experimental: (§1) Affinity constants (Kd values) were determined using double-filter nitrocellulose filter binding assays (Rusconi et al, Thromb. Haemost. $4:841-848 (2000)). All binding studies were performed in binding buffer F (20 mM HEPES, pH 7.4, 150 mM NaCl, 2 mM CaCl₂, and 0.01% BSA) at 37° C. Human purified VWF (factor VIII free) was purchased from Haematologic Technologies Inc. (Essex Junction, Vt.) and used in the double-filter nitrocellulose filter binding assay to determine the Kd of the aptamers. Briefly, RNA were end-labeled at the 5′ end with T4 polynucleotide kinase (New England Biolabs, Beverly, Mass.) and [γ³²P] ATP (Amersham Pharmacia Biotech, Piscataway, N.J.) (Fitzwater and Polisky, Methods Enzymol. 267:275-301 (1996)). End-labeled RNA was diluted in binding buffer F, heat denatured at 65° C. for 5 minutes, and subsequently equilibrated at 37° C. Direct binding was performed by incubating trace ³²P-RNA with varying concentrations of VWF protein in binding buffer F at 37° C. for 5 min. The fraction of the nucleic acid-protein complex which bound to the nitrocellulose membrane was quantified with a phosphorimager (Molecular Dynamics, Sunnyvale, Calif.). Non-specific binding of the radiolabeled nucleic acid was subtracted out of the binding such that only specific binding remained (Wong and Lohman, Proc. Natl. Acad. Sci. USA 90:5428-5432 (1993)).

[2] = biological target: T1, von Willebrand factor (VWF); assay: filter; Bmax 72%; 2 mM CaCl2, 37 C; details: tags: factor VIII free human purified VWF, Haematologic Technologies Inc; label: 5'-32P
Experimental: as §1

[3] = biological target: T1, von Willebrand factor (VWF); assay: filter; Bmax 53%; 2 mM CaCl2, 37 C; details: tags: factor VIII free, Haematologic Technologies Inc; label: 5'-32P
Experimental: as §1

[4] = biological target: T1, von Willebrand factor (VWF); assay: filter; Bmax 89%; 2 mM CaCl2, 37 C; details: tags: factor VIII free human purified VWF, Haematologic Technologies Inc; label: 5'-32P
Experimental: as §1

[5] = biological target: T1, von Willebrand factor (VWF); assay: filter; Bmax 70%; 20 mM HEPES pH 7.4, 150 mM NaCl, 2 mM CaCl2, 0.01% BSA, 37 C; details: tags: factor VIII free, Haematologic Technologies Inc; label: 5'-32P
Experimental: as §1

[6] = biological target: T1, von Willebrand factor (VWF); assay: filter; Bmax 65%; 2 mM CaCl2, 37 C; details: tags: factor VIII free, Haematologic Technologies Inc; label: 5'-32P
Experimental: as §1

[7] = biological target: T1, von Willebrand factor (VWF); assay: filter; Bmax 84%; 2 mM CaCl2, 37 C; details: tags: factor VIII free human purified VWF, Haematologic Technologies Inc; label: 5'-32P
Experimental: as §1

[8] = biological target: T1, von Willebrand factor (VWF); assay: filter; Bmax 75%; 2 mM CaCl2, 37 C; details: Haematologic Technologies Inc, label: 5'-32P
Experimental: as §1

[9] = biological target: T1, von Willebrand factor (VWF); assay: filter; Bmax 50%; 2 mM CaCl2, 37 C; details: tags: factor VIII free, Haematologic Technologies Inc; label: 5'-32P
Experimental: as §1

[10] = biological target: T1, von Willebrand factor (VWF); assay: filter; Bmax 44%; 2 mM CaCl2, 37 C; details: tags: factor VIII free, Haematologic Technologies Inc; label: 5'-32P
Experimental: as §1

[11] = biological target: T1, von Willebrand factor (VWF); assay: filter; Bmax 56%; 2 mM CaCl2, 37 C; details: tags: factor VIII free, Haematologic Technologies Inc
Experimental: as §1

[12] = biological target: von Willebrand factor (VWF) in whole blood (Homo sapiens, UniProt P04275 P04275:764-2813); assay: inhibition; platelet adhesion to collagen under high shear, human whole blood; text gives 72.6; details: protein: extract; tags: endogenous, hirudin-anticoagulated human whole blood
Experimental: The Venaflux™ microfluidics system (Cellix, Dublin, Ireland) measures platelet adhesion on a collagen surface. Human blood was collected into hirudin tubes from healthy volunteers by vena puncture. An aliquot containing 300 μl of whole blood treated with aptamer or platelet-binding buffer alone was flowed through collagen-coated micro-channels at 60 dynes for 3 minutes. Channels were then rinsed with saline for 3 minutes to wash away RBC and unbound platelets. Venaflux imaging software and Image Pro Plus were used to image bound platelets and calculate covered surface area. Aptamer was incubated at 95° C. for 3 minutes, placed on ice for 3 minutes, then incubated for 10 minutes at room temperature. After cooling, aptamer was kept on ice until use. Total surface area covered by bound platelets in treated blood was expressed as a percentage of total coverage in negative control blood. Statistical significance was determined by analysis of variance; IC₅₀ of the aptamer was calculated using a fitted linear regression curve.
To evaluate the inhibitory effect of the aptamer on platelet adhesion, human whole blood samples were treated with aptamer starting at 900 nmol/L with 2-fold dilutions to 14 nmol/L and tested by measuring platelet adhesion under high-shear stress. The aptamer prevented platelet adhesion to the collagen surface in a dose-dependent manner (FIG. 20-22).

[13] = biological target: T1, von Willebrand factor (VWF); assay: filter; Bmax 20%; 2 mM CaCl2, 37 C; details: tags: factor VIII free, Haematologic Technologies Inc; label: 5'-32P
Experimental: as §1

[14] = biological target: T1, von Willebrand factor (VWF); assay: filter; Bmax 64%; 2 mM CaCl2, 37 C; details: tags: factor VIII free, Haematologic Technologies Inc; label: 5'-32P
Experimental: as §1

ACGAACUGCCCUCGAUCGACGCACAGACGUACACA (ssRNA, 2'-F C and U; 2'-OH A and G; 3' idT) [T81]
Kd [1]: 4.2 nM

B1: T84 vrt1 (ssRNA)
RNA: ACGAACUGCCCUCGAUCGACGCACAGACGUACACG
modifications: 2'-F C2,U7,C9,C10,C11,U12,C20,C22,C28,U30; ribo A1,G3,G8,A19,G21,A23,G29; rest 2'-OMe; 3' idT
Kd [2]: 1.7 nM

ACGAACUGCCCUCGAUCGACGCACAGACGU (ssRNA, mAfCmGmAmAmCfUmGfCfCfCfUmCmGmAmUmCmGmAfCmGfCmAmCmAmGmAfCmGfU-idT) [T59 vrt4]
Kd [3]: 364 nM

ACGAACUGCCCUCGAUCGACGCACAGACGU (ssRNA, 2'-F C9,C10,C11,C20,C22; ribo G21; rest 2'-OMe; 3' idT) [T59 vrt26]
Kd [4]: 18 nM

B2: VWF9.14 full length (ssRNA)
RNA: GGGAGGACGAUGCGGUGGACGAACUGCCCUCAGCUACUUUCAUGUUGCUGACGCACAGACGACUCGCUGAGGAUCCGAGA
modifications: 2'-F C and U; 2'-OH A and G
Kd [5]: 12 nM

ACGAACUGCCCUCGAUCGACGCACAGACGU (ssRNA, mAmCmGmAmAmCfUmGfCfCfCmUmCmGmAmUmCmGmAfCmGfCrAmCmAmGmAmCmGfU-idT) [T59 vrt15]
Kd [6]: 32.5 nM

B3: T89 vrt1 (ssRNA)
RNA: ACGAACUGCCCUCGUAUUAUUUCGACGCACAGACGU
modifications: 2'-F C2,U7,C9,C10,C11,U12,C26,C28,C34,U36; ribo A1,G3,G8,A25,G27,A29,G35; rest 2'-OMe; 3' idT
Kd [7]: 1.2 nM

ACGAACUGCCCUCGUAUUAUUUCGACGCACAGACGU (ssRNA, 2'-F C9,C10,C11,C26,G27,C28; rest 2'-OMe; 3' idT) [T89 vrt7]
Kd ([8]; tags: factor VIII free human purified VWF): 38.5 nM

ACGAACUGCCCUCAGACUUUCAUGUCUGACGCACAGACGU (ssRNA, 2'-F C and U; 2'-OH A and G; 3' idT) [T39]
Kd [9]: 11 nM

ACGAACUGCCCUCGAUCGACGCACAGACGU (ssRNA, mAmCmGmAmAmCmUmGfCfCfCmUmCmGmAmUmCmGmAfCfGfCmAmCmAmGmAmCmGfUidT) [DTRI-007]
Kd [10]: 16 nM

ACGAACUGCCCUCGAUCGACGCACAGACGUUUUUU (ssRNA, mAmCmGmAmAmCmUmGfCfCfCmUmCmGmAmUmCmGmAfCfGfCmAmCmAmGmAmCmGmUmUmUmUmUmU-idT) [T79 vrt7 (DTRI-031)]
Kd [11]: 11.2 nM
IC50 [12]: 72.5 nM

ACGAACUGCCCUCGAUCGACGCACAGACGUUUUUU (ssRNA, mAmCmGmAmAmCmUmGfCfCfCmUmCmGmAmUmCmGmAfCmGfCmAmCmAmGmAmCmGfUmUmUmUmUmU-idT) [T79 vrt3]
Kd [13]: 66 nM

ACGAACUGCCCUCGAUCGACGCACAGACGUUUUUU (ssRNA, mAmCmGmAmAmCmUmGfCfCfCmUmCmGmAmUmCmGmAfCrGfCmAmCmAmGmAmCmGmUmUmUmUmUmU-idT) [T79 vrt4]
Kd ([8]; tags: factor VIII free): 13 nM

ACGAACUGCCCUCGAUCGACGCACAGACGUUUUUU (ssRNA, 2'-F C and U; 2'-OH A and G; 3' idT) [T79]
Kd [14]: 1.6 nM
